# According to patent US8722052B2, “Vaccinia virus protein A46 peptide and use thereof” (priority 2008, dated 2014):
# Molecular target: T1, TLR4 (Mus musculus, UniProt Q9QUK6)
# T1 sequence (Q9QUK6 26-835): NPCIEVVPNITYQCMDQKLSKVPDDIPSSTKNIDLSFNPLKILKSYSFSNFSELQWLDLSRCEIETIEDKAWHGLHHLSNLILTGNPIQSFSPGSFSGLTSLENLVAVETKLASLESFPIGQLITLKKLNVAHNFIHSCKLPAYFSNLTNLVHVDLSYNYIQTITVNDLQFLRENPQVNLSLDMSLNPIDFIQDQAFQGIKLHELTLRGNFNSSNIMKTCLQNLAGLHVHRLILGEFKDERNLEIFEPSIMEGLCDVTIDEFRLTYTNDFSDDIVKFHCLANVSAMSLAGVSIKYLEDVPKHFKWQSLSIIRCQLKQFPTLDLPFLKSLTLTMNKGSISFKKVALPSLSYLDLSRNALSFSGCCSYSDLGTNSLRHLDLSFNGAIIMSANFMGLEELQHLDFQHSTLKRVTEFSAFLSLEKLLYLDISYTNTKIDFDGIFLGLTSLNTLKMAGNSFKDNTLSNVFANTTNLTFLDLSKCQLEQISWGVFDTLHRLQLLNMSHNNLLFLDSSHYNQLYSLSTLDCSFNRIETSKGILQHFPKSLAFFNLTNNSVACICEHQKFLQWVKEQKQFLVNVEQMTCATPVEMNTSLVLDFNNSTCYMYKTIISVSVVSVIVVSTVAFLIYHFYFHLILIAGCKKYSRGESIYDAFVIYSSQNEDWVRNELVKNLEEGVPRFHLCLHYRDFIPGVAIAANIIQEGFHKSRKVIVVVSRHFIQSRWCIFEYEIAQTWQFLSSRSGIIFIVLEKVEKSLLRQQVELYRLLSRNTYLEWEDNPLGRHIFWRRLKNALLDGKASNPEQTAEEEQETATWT
# T1 sequence (Q9JHF9 19-160 partner): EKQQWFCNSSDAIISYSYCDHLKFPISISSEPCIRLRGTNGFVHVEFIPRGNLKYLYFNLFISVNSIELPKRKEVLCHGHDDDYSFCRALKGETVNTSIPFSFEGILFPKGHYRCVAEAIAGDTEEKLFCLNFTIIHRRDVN
# Test: LPS-induced TNFα in RAW264.7 cells, ELISA
# Type: cell-based, murine
# Design: endogenous in cells; host or cells: RAW264.7; immortalised murine bone-marrow-derived macrophages
# Protocol: FIGS. 5A and B are bar charts showing the dose-dependent inhibitory effect of A464R on LPS-induced TNFα in murine RAW264.7 cells. A464 (SEQ ID NO. 20) was added to the cells at a concentration of 5, 20 or 50 μM 1 hour before stimulating with 100 ng/ml LPS. Supernatant was collected 24 hours after stimulation and assayed for TNFα by ELISA (A) and cells were assayed for viability by the MTT assay (B.). No peptides were added to the control wells (black bars). Data is representative of at least three experiments each performed in triplicate and is expressed as mean±s.d;
# FIGS. 6A and B are bar charts showing the effect of peptides derived from A46 on LPS-induced TNFα in murine RAW264.7 cells. A46 peptides were added to the cells at a concentration of 1 or 5 μM 1 hour before stimulating with 10 ng/ml LPS. Supernatants were collected 6 hours after stimulation and assayed for TNFα by ELISA. No peptides were added into the control wells (black bars). (A) peptides A461-A467 (SEQ ID NO. 17 to 23). (B) peptides A468-A4614 (SEQ ID NO. 24 to 30) (excluding A4610 SEQ ID NO. 26 and A4612 SEQ ID NO. 28). Data is representative of at least two experiments each performed in triplicate and is expressed as mean±s.d;
# FIGS. 22 A and B are bar charts showing the effect of short A467 and A464 peptides, with 9R on either N- or C-terminus, on LPS- induced TNFα production in murine RAW264.7 cells. Cells were seeded in 96 well plates (1.5×10^5 cells/ml) 24 hours before treatment. Short A467 and short A464 peptides with the 9R delivery sequence on either the C-terminus (sA464C9R) (SEQ ID NO. 56) (A) or the N-terminus (sA464N9R) (SEQ ID NO. 57) (B) were added to the cells at a concentration of 5 or 25 μM 1 hour before stimulating with 10 ng/ml LPS. Normal full length A467 (SEQ ID NO. 23) and A464 (SEQ ID NO. 20) peptides were added at a concentration of 5 μM as positive controls. Supernatants were collected 6 hours after stimulation with the agonist and assayed for TNFα, by ELISA. No peptides were added to the control wells (black bars). Data is representative of at least three experiments each performed in triplicate and is expressed as mean±s.d;
# Cytokine and chemokine production from cells or mouse serum was measured by ELISA using Duoset kits from R&D systems, according to the manufacturer's instructions.
sequence,measurement,setting,value
KYSFKLILAEYRRRRRRRRR [Peptide A464],inhibition of LPS-induced mTNFα,"peptide 1 or 5 μM 1 h before 10 ng/ml LPS, 6 h",inhibited LPS-induced mTNFα at 1 and 5 μM
same,inhibition of LPS-induced murine TNFα production,"peptide 5, 20 or 50 μM 1 h before 100 ng/ml LPS, 24 h",potently inhibited LPS-induced murine TNFα production in RAW264.7 cells at just 5 μM
